# Measured values from US20250002564A1 (HOSPITAL FOR SICK CHILDREN, published 2025).
# Like-named read-outs stand apart in the source and are kept apart here.
# How the values were obtained:
# [1] = target: T1, SARS-CoV-2 receptor binding domain (RBD), wild type, His-tagged (SARS-CoV-2, UniProt P0DTC2 319-541); assay: method and format not given
# T1 construct: domain: RBD; also called His-tagged RBD; BEI NR52309
# [2] = target: T1, SARS-CoV-2 receptor binding domain …; assay: method and format not given; remark: listed apart in the source
# [3] = target: T1, SARS-CoV-2 receptor binding domain …; assay: BLI competition on His-tagged RBD, after 1st Ab 46
# [4] = target: T1, SARS-CoV-2 receptor binding domain …; assay: BLI competition on His-tagged RBD, after 1st Ab 52
# [5] = target: T1, SARS-CoV-2 receptor binding domain …; assay: BLI competition on His-tagged RBD, after 1st Ab 80
# [6] = target: T1, SARS-CoV-2 receptor binding domain …; assay: BLI competition on His-tagged RBD, after 1st Ab 82
# [7] = target: T1, SARS-CoV-2 receptor binding domain …; assay: BLI competition on His-tagged RBD, after 1st Ab 236
# [8] = target: T1, SARS-CoV-2 receptor binding domain …; assay: BLI competition on His-tagged RBD, after 1st Ab 298
# [9] = target: T1, SARS-CoV-2 receptor binding domain …; assay: BLI competition on His-tagged RBD, after 1st Ab 324
# [10] = target: T2, SARS-CoV-2 prefusion S ectodomain (Spike trimer), His-tagged (SARS-CoV-2, UniProt P0DTC2 14-1213); assay: BLI, His-tagged Spike on Ni-NTA sensor
# T2 construct: extracellular domain; also called SARS-CoV-2 Spike; S protein
binder,measurement,setting,value
"mAb 254 (antibody, V domains shown, also called IgG 254; Antibody 254) VH: EVQLLESGGGLVQPGGSLRLSCAASGFTFSSSAMHWVRQAPGKGLEWVSAIGTGGDTYYADSVKGRFTISRDNSKNTLYLQMNSLRAEDTAVYYCAREGDGYNFYFDYWGQGTLVTVSS VL: DIQMTQSPSSLSASVGDRVTITCRASQGISSYLAWYQQKPGKAPKLLIYDASSLQIGVPSRFSGSGSGTDFTLTISSLQPEDFATYYCLQSYSTPPWTFGQGTKVEIKR",Kd,[1],127 nM
same,Kd,[2],127 nM
"mAb 52 (antibody, V domains shown, also called IgG 52; Antibody 52) VH: QVQLVQSGAEVKKPGSSVKVSCKASGYTFTSYGISWVRQAPGQGLEWMGGIIPMFGTTNYAQKFQGRVTITADKSTSTAYMELSSLRSEDTAVYYCARDRGDTIDYWGQGTLVTVSS VL: DIQMTQSPSSLSASVGDRVTITCRASQGISNNLNWYQQKPGKAPKLLIYAASSLESGVPSRFSGSGSGTDFTLTISSLQPEDFATYYCQQGNGFPLTFGPGTKVDIKR",RBD binding of 2nd Ab after 1st Ab (heat map),[3],0.5
same,RBD binding of 2nd Ab after 1st Ab (heat map),[4],0.4
same,RBD binding of 2nd Ab after 1st Ab (heat map),[5],1.3
same,RBD binding of 2nd Ab after 1st Ab (heat map),[6],0.8
same,RBD binding of 2nd Ab after 1st Ab (heat map),[7],1.5
same,RBD binding of 2nd Ab after 1st Ab (heat map),[8],1.4
same,RBD binding of 2nd Ab after 1st Ab (heat map),[9],1.5
"4A8 IgG (antibody, V domains shown, also called IgG 4A8) VH: EVQLVESGAEVKKPGASVKVSCKVSGYTLTELSMHWVRQAPGKGLEWMGGFDPEDGETMYAQKFQGRVTMTEDTSTDTAYMELSSLRSEDTAVYYCATSTAVAGTPDLFDYYYGMDVWGQGTTVTVSS VL: EIVMTQSPLSSPVTLGQPASISCRSSQSLVHSDGNTYLSWLQQRPGQPPRLLIYKISNRFSGVPDRFSGSGAGTDFTLKISRVEAEDVGVYYCTQATQFPYTFGQGTKVDIK",Kd,[10],1.42 nM
same,koff,[10],0.000191 s⁻¹
same,kon,[10],133000 M⁻¹ s⁻¹
"mAb 128 (antibody, V domains shown) VH: QVQLVQSGAEVKKPGASVKVSCKASGYTFTHYYMHWVRQAPGQGLEWMGIINPSSSSASYSQKFQGRVTMTRDTSTSTVYMELSSLRSEDTAVYYCARDGRYGSGSYPFDYWGQGTLVTVSS VL: DIQMTQSPSSLSASVGDRVTITCRASQNISRYLNWYQQKPGKAPKLLIYDASNLETGVPSRFSGSGSGTDFTLTISSLQPEDFATYYCQQANGFPPTFGQGTKLEIKR",Kd,[1],57 nM
same,Kd,[2],57 nM
"mAb 120 (antibody, V domains shown, also called IgG 120; Antibody 120) VH: QVQLVQSGAEVKKPGASVKVSCKASGYTFTSYDINWVRQAPGQGLEWMGMIDPSGGSTSYAQKFQGRVTMTRDTSTSTVYMELSSLRSEDTAVYYCAKDFGGGTRYDYWYFDLWGRGTLVTVSS VL: EIVMTQSPATLSVSPGERATLSCRASQSVSSRYLAWYQQKPGQAPRLLIYGASTRATGIPARFSGSGSGTEFTLTISSLQSEDFAVYYCQQYYTTPRTFGQGTRLEIKR",Kd,[1],24 nM
same,Kd,[2],24 nM
"mAb 46 (antibody, V domains shown, also called IgG 46; Antibody 46) VH: EVQLLESGGGLVQPGRSLRLSCAASGFTFSSYAMSWVRQAPGKGLEWVSTIYSGGSTYYADSVKGRFTISRDNSKNTLYLQMNSLRAEDTAVYYCARGDSRDAFDIWGQGTMVTVSS VL: DIQMTQSPSSLSASVGDRVTITCRASQSISSWLAWYQQKPGKAPKLLIYDASNLETGVPSRFSGSGSGTDFTLTISSLQPEDFATYYCQQSYSTPFTFGPGTKVDIKR",Kd,[1],83 nM
same,Kd,[2],83 nM
same,RBD binding of 2nd Ab after 1st Ab (heat map),[3],0.2
same,RBD binding of 2nd Ab after 1st Ab (heat map),[4],0.2
same,RBD binding of 2nd Ab after 1st Ab (heat map),[5],1.3
same,RBD binding of 2nd Ab after 1st Ab (heat map),[6],1.2
same,RBD binding of 2nd Ab after 1st Ab (heat map),[7],1.7
same,RBD binding of 2nd Ab after 1st Ab (heat map),[8],1.7
same,RBD binding of 2nd Ab after 1st Ab (heat map),[9],1.7
"mAb 324 (antibody, V domains shown, also called IgG 324; Antibody 324) VH: QVQLVQSGAEVKKPGASVKVSCKASGGTFNNYGISWVRQAPGQGLEWMGWMNPNSGNTGYAQKFQGRVTMTRDTSTSTVYMELSSLRSEDTAVYYCARVGDYGDYIVSPFDLWGRGTLVTVSS VL: DIQMTQSPSSLSASVGDRVTITCRASQSITTYLNWYQQKPGKAPKLLIYDASNLETGVPSRFSGSGSGTDFTLTISSLQPEDFATYYCQQSYSTPPTFGQGTKVEIKR",Kd,[1],111 nM
same,Kd,[2],111 nM
same,RBD binding of 2nd Ab after 1st Ab (heat map),[3],1.2
same,RBD binding of 2nd Ab after 1st Ab (heat map),[4],1
same,RBD binding of 2nd Ab after 1st Ab (heat map),[5],0.1
same,RBD binding of 2nd Ab after 1st Ab (heat map),[6],0.2
same,RBD binding of 2nd Ab after 1st Ab (heat map),[7],0.3
same,RBD binding of 2nd Ab after 1st Ab (heat map),[8],0.2
same,RBD binding of 2nd Ab after 1st Ab (heat map),[9],0.4
"mAb 64 (antibody, V domains shown, also called IgG 64; Antibody 64) VH: EVQLLESGGGLVQPGGSLRLSCAASGFPFSQHGMHWVRQAPGKGLEWVSAIDRSGSYIYYADSVKGRFTISRDNSKNTLYLQMNSLRAEDTAVYYCARDTYGGKVTYFDYWGQGTLVTVSS VL: DIQMTQSPSSLSASVGDRVTITCRASQGISSHLAWYQQKPGKAPKLLIYDASNLETGVPSRFSGSGSGTDFTLTISSLQPEDFATYYCQQTYSTPWTFGQGTKVEIKR",Kd,[1],97 nM
same,Kd,[2],97 nM
"mAb 56 (antibody, V domains shown, also called IgG 56; Antibody 56) VH: QVQLVQSGAEVKKPGASVKVSCKASGYTFTSYGISWVRQAPGQGLEWMGWISAYNGNTNYAQKLQGRVTMTRDTSTSTVYMELSSLRSEDTAVYYCARDIGPIDYWGQGTLVTVSS VL: DIQMTQSPSSLSASVGDRVTITCRASQGISSYLAWYQQKPGKAPKLLIYDASNLQSGVPSRFSGSGSGTDFTLTISSLQPEDFATYYCQQANSFPSTFGQGTKVEIKR",Kd,[1],23 nM
same,Kd,[2],23 nM
"mAb 108 (antibody, V domains shown) VH: QVQLVQSGAEVKKPGASVKVSCKASGYIFSRYAIHWVRQAPGQGLEWMGWMNPISGNTDYAPNFQGRVTMTRDTSTSTVYMELSSLRSEDTAVYYCAKDGSQLAYLVEYFQHWGQGTLVTVSS VL: DIQMTQSPSSLSASVGDRVTITCRASQVITNNLAWYQQKPGKAPKLLIYDASTLETGVPSRFSGSGSGTDFTLTISSLQPEDFATYYCQQSYTFPYTFGQGTKVEIKR",Kd,[1],72 nM
same,Kd,[2],72 nM
"mAb 158 (antibody, V domains shown, also called IgG 158; Antibody 158) VH: QVQLVQSGAEVKKPGASVKVSCKASGYTFTGYYMHWVRQAPGQGLEWMGWINPLNGGTNFAPKFQGRVTMTRDTSTSTVYMELSSLRSEDTAVYYCARDPGGSYSNDAFDIWGQGTLVTVSS VL: DIQMTQSPSSLSASVGDRVTITCRASQSISRYLNWYQQKPGKAPKLLIYDASNLESGVPSRFSGSGSGTDFTLTISSLQPEDFATYYCQQANSFPLTFGGGTKVDIKR",Kd,[1],172 nM
same,Kd,[2],172 nM
"mAb 82 (antibody, V domains shown, also called IgG 82; Antibody 82) VH: QVQLVQSGAEVKKPGASVKVSCKASGGSFSTSAFYWVRQAPGQGLEWMGWINPYTGGTNYAQKFQGRVTMTRDTSTSTVYMELSSLRSEDTAVYYCARSRALYGSGSYFDYWGQGTLVTVSS VL: DIQMTQSPSSLSASVGDRVTITCRASQVISNYLAWYQQKPGKAPKLLIYDASNLETGVPSRFSGSGSGTDFTLTISSLQPEDFATYYCQQSFSPPPTFGQGTRLEIKR",Kd,[1],206 nM
same,Kd,[2],206 nM
same,RBD binding of 2nd Ab after 1st Ab (heat map),[3],1.4
same,RBD binding of 2nd Ab after 1st Ab (heat map),[4],0.6
same,RBD binding of 2nd Ab after 1st Ab (heat map),[5],0.6
same,RBD binding of 2nd Ab after 1st Ab (heat map),[6],0.4
same,RBD binding of 2nd Ab after 1st Ab (heat map),[7],0.6
same,RBD binding of 2nd Ab after 1st Ab (heat map),[8],0.5
same,RBD binding of 2nd Ab after 1st Ab (heat map),[9],0.8
"mAb 349 (antibody, V domains shown, also called IgG 349; Antibody 349) VH: EVQLLESGGGLVQPGGSLRLSCAASGFTFSNYGMHWVRQAPGKGLEWVSGISSAGSITNYADSVKGRFTISRDNSKNTLYLQMNSLRAEDTAVYYCAGNHAGTTVTSEYFQHWGQGTLVTVSS VL: DIQMTQSPSSLSASVGDRVTITCRASQSISSWLAWYQQKPGKAPKLLIYDTSNLETGVPSRFSGSGSGTDFTLTISSLQPEDFATYYCQQSYTTPWTFGQGTRLEIKR",Kd,[1],74 nM
same,Kd,[2],74 nM
"mAb 160 (antibody, V domains shown, also called IgG 160; Antibody 160) VH: QVQLVQSGAEVKKPGASVKVSCKASGYTFTGHDMHWVRQAPGQGLEWMGIINPSGGSTSYAQKFQGRVTMTRDTSTSTVYMELSSLRSEDTAVYYCARANSLRYYYGMDVWGQGTMVTVSS VL: DIQMTQSPSSLSASVGDRVTITCRASQSVSSWLAWYQQKPGKAPKLLIYAASSLQSGVPSRFSGSGSGTDFTLTISSLQPEDFATYYCQQGYTTPYTFGQGTKLEIKR",Kd,[1],7.7 nM
same,Kd,[2],7.7 nM
"mAb 178 (antibody, V domains shown, also called IgG 178; Antibody 178) VH: QVQLVQSGAEVKKPGASVKVSCKASGYTFTDYHMHWVRQAPGQGLEWMGWINPNSGGTNYAQKFQGRVTMTRDTSTSTVYMELSSLRSEDTAVYYCARDISSWYEITKFDPWGQGTLVTVSS VL: EIVMTQSPATLSVSPGERATLSCKASQSVSGTYLAWYQQKPGQAPRLLIYGASTRATGIPARFSGSGSGTEFTLTISSLQSEDFAVYYCLQTHSYPPTFGQGTKVEIKR",Kd,[1],72 nM
same,Kd,[2],72 nM
